Laboratory results reported in PMC4005638, “Interactions between the non-seed region of siRNA and RNA-binding RLC/RISC proteins, Ago and TRBP, in mammalian cells”.

How the values were obtained:
[1] = biological target: T1, GST-PAZ (human AGO1 PAZ domain) (Homo sapiens, UniProt Q9UL18 222-376); assay: EMSA; TRBP EMSA: 20 mM Tris pH 7.5, 150 mM NaCl, 2 mM EDTA, 1 mM 2-ME, 1 mM DTT, 50 ng/ml salmon sperm DNA, RNasin, 0.5 nM siRNA, 30 min; PAZ EMSA: 1 pmol/ul PAZ, 5 fmol/ul siRNA, 20 mM Tris-HCl pH 7.5, 100 mM NaCl, 2 mM EDTA, 1 mM DTT, 5% glycerol, 50 ng/ul poly(dA-dT), RNasin, 30 min, room temperature; settings: protein: recombinant; tags: N-terminal GST, C-terminal 6xHis; label: 32P guide strand; 19 bp, 2-nt 3' overhangs
[2] = biological target: T2, TRBP (Homo sapiens, UniProt Q15633 1-366); assay: EMSA; virtually no binding; TRBP EMSA: 20 mM Tris pH 7.5, 150 mM NaCl, 2 mM EDTA, 1 mM 2-ME, 1 mM DTT, 50 ng/ml salmon sperm DNA, RNasin, 0.5 nM siRNA, 30 min; PAZ EMSA: 1 pmol/ul PAZ, 5 fmol/ul siRNA, 20 mM Tris-HCl pH 7.5, 100 mM NaCl, 2 mM EDTA, 1 mM DTT, 5% glycerol, 50 ng/ul poly(dA-dT), RNasin, 30 min, room temperature; settings: protein: recombinant; tags: N-terminal 6xHis; label: 32P guide strand; 19 bp, 2-nt 3' overhangs
T2 sequence: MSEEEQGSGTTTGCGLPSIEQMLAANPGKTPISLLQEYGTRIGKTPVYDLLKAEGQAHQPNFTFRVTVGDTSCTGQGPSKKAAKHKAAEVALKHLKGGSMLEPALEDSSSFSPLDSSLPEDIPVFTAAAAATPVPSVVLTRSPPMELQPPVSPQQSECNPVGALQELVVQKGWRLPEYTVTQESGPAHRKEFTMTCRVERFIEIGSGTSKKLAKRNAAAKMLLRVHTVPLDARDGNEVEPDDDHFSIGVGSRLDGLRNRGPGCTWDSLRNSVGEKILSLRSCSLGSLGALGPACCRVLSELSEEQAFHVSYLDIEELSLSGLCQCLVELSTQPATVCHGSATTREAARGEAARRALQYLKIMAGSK

[3] = biological target: T1, GST-PAZ (human AGO1 PAZ domain); assay: EMSA; strong; TRBP EMSA: 20 mM Tris pH 7.5, 150 mM NaCl, 2 mM EDTA, 1 mM 2-ME, 1 mM DTT, 50 ng/ml salmon sperm DNA, RNasin, 0.5 nM siRNA, 30 min; PAZ EMSA: 1 pmol/ul PAZ, 5 fmol/ul siRNA, 20 mM Tris-HCl pH 7.5, 100 mM NaCl, 2 mM EDTA, 1 mM DTT, 5% glycerol, 50 ng/ul poly(dA-dT), RNasin, 30 min, room temperature; settings: protein: recombinant; tags: N-terminal GST, C-terminal 6xHis; label: 32P guide strand; 19 bp, 2-nt 3' overhangs

T1 sequence (Q9UL18 222-376): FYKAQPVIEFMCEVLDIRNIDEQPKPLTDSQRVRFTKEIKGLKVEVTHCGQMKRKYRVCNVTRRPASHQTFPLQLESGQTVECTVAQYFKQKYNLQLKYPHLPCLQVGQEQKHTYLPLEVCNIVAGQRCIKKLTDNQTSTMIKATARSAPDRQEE

B1: siLuc-36 siDNA (dsDNA)
DNA 1: TCTTCCAGCGGATAGAATGGC
DNA 2: CATTCTATCCGCTGGAAGATG
modifications: all ribonucleotides replaced by DNA
- binding result [1]: no binding
- binding result [2]: no binding

B2: siLuc-36 TCA-RNA (mixed)
DNA 1: TCTTCCAGCGGATAGAAUGGC
DNA 2: CAUUCTAUCCGCTGGAAGATG
modifications: DNA: seed duplex and subdomain B (guide 1-8, 13-14; passenger 6-7, 12-21)
- binding result [3]: binds

B3: siLuc2-153 siDNA (dsDNA)
DNA 1: TCGAAGTATTCCGCGTACGTG
DNA 2: CGTACGCGGAATACTTCGATT
modifications: all ribonucleotides replaced by DNA
- binding result [2]: no binding

B4: siLuc-36 nonmodified (dsRNA)
RNA 1: UCUUCCAGCGGAUAGAAUGGC
RNA 2: CAUUCUAUCCGCUGGAAGAUG
- binding result [1]: binds
